These results are taken from patent US20090082268A1 (GEYMONAT S P A, published 2009).

The test deals with T1, human VEGFR-1/Fc (R&D Systems) (human, UniProt P17948 27-756, limits assumed).
T1 construct: Bought reagent, coated on the ELISA plate; also called receptor Flt-1; not shown: Fc part of the bought fusion
The test is described as follows: ELISA: VEGFR-1/Fc coated, PlGF-1 diluted two-fold from 20 ng/ml, detected with biotinylated anti-human PlGF antibodies. How it is done: To test receptor binding, an ELISA assay was performed according to the following protocol: [0141] 1. Well of 96-well microtiter plate were coated with 200 μl of 1 μg/ml human VEGFR-1/Fc (R&D Systems) and incubated overnight at 4° C. [0142] 2. Two-fold dilution series starting at 20 ng/ml of various preparations of recombinant human PlGF-1 were prepared and added in a volume of 100 μl per well. The plate was incubated for 2 hours at room temperature. [0143] 3. Bound PlGF-1 was captured with biotinylated anti-human PlGF antibodies (R&D Systems) added in a volume of 100 μl per well for 1 hour at room temperature. [0144] 4. A 1:200 dilution of horseradish peroxidase-conjugated streptavidin (R&D Systems) was added and incubated for 20 min. at room temperature. [0145] 5. Substrate solution (TMB from Pierce) was added and after 15 min. the reaction was quenched with 2 M sulfuric acid. [0146] 6. The absorbance was measured at 450 nm.

T1 sequence (P17948 27-756 limits assumed): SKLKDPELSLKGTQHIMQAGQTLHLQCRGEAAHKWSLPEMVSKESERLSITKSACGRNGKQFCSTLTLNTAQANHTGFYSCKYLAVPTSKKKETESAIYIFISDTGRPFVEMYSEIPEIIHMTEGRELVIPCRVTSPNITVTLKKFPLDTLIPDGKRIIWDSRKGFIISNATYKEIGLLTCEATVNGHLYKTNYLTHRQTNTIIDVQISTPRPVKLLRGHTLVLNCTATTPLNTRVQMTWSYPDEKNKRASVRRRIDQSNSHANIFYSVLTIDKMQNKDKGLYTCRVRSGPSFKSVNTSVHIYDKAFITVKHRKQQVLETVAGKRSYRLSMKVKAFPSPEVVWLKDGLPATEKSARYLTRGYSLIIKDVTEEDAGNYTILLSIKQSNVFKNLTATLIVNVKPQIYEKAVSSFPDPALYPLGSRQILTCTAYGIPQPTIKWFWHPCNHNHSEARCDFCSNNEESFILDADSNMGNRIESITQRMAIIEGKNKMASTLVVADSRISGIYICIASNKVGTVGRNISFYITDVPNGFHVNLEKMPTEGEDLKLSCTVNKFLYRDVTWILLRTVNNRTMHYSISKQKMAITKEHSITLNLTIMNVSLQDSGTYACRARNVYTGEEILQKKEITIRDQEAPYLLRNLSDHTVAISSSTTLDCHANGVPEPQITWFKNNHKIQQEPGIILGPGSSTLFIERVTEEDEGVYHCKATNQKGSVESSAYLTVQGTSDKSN

B1: PlGF-1 mutein from Geymonat (recombinant human PLGF-1CG) (ligand)
chain: MLPAVPPQQWALSAGNGSSEVEVVPFQEVWGRSYCRALERLVDVVSEYPSEVEHMFSPSCVSLLRCTGCCGDENLHCVPVETANVTMQLLKIRSGDRPSYVELTFSQHVRCECRPLREKMKPERGGDAVPRR
notes: Described as 'a PlGF-1 mutein embodiment of the present invention'; also called Geymonat Mutein; Mutein Geymonat
For the molecule B1, the binding result is “binds”.
